Molecular target: the molecule itself
Experiment: crystal structure

B1: mouse Nudt12 catalytic domain (residues 126-462), E219A/E220A/E221A triple mutant (domain or fragment, UniProt Q9DCN1 126-462, looked up)
chain: LDRRSDKRNNSDWLQAKESHPTTVYLLFSDLNPLVTLGGNKESSQQPEVRLCQLNYPDVKGYLAQPEKITLVFLGVELEMRKGSPAQAGGVPEAAADGLVAWFALGIEPGAAEEFKQRHENCYFLHPPMPALLQLKEKEAGVVAQARSVLAWHSRYKFCPTCGSATKIEEGGYKRVCVRETCPSLQGVHNTSYPRVDPVVIMQVIHPDGTKCLLGRQKRFPPGMFTCLAGFIEPGETIEDAVRREVEEESGVKVGHVQYVSCQPWPMPSSLMIGCLAVAVSTEIKVDKNEIEDARWFTREQVVDVLTKGKQQAFFVPPSRAIAHQLIKHWVGMNPNL
In the case of B1, the “stoichiometry N” value is reported as 2.

From publication doi:10.1101/474478 (bioRxiv, 2018)
